From patent US20190367619A1 (ARGENX, published 2019)
Changes are numbered by the printed parent chain.

T1: recombinant human galectin-10, TEV-cleaved (human, UniProt Q05315 1-142)
T1 sequence: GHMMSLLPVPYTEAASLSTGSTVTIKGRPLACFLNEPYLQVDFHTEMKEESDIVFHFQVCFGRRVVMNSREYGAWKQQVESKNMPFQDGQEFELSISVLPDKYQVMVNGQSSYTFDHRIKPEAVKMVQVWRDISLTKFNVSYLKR

T2: human galectin-10-His (human)
T2 construct: The last M of the tag may be Met1 of galectin-10; also called humanGal10-His; hGal10
T2 chain: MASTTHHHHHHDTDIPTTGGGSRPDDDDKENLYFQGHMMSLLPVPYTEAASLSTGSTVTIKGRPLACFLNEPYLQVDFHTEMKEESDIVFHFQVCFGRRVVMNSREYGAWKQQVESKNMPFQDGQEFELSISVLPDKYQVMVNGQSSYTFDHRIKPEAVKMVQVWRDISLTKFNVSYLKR

T3: cynomolgus galectin-10-His, WGS isoform (cynomolgus)
T3 construct: also called cynoGal10-WGS; not shown: His tag
T3 chain: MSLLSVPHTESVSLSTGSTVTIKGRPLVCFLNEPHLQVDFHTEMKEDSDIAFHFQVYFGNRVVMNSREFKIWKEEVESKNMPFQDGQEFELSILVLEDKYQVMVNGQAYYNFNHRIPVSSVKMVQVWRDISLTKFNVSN

T4: cynomolgus galectin-10-His, YRT isoform (cynomolgus)
T4 construct: also called cynoGal10-YRT; not shown: His tag
T4 chain: T3 chain with K23E, G24A, L31F, F69Y, K70R, I71T, S92R

T5: human galectin-10 as coated in ELISA (soluble galectin-10; tag not given) (human, UniProt Q05315 1-142, limits assumed)
T5 construct: also called coated galectin-10; Gal10
T5 sequence: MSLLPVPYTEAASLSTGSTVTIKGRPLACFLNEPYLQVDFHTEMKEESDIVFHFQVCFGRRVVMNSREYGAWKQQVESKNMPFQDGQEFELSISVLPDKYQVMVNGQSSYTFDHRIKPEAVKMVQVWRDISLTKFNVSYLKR

T6: human galectin-10-His (recombinant human galectin-10 with TEV-cleavable N-terminal His-tag) (human)
T6 construct: SEC-MALLS: dimer in solution; also called Gal10-His; humanGal10-His
T6 chain: T2 chain

B1: 8H11 mouse IgG1 (antibody, V domains shown)
VH: ELQLVESGGGLVQPGGSLRLSCAASGFTFSTNYMNWVRQAPGKGLEWVSGITSGGGRTYYADSVKGRFTISRDNAKNTLYLQMNSLKPEDTALYYCARTDHAWLDAWGQGTLVTVSS
VL: QAGLTQPPSVSGTLGKTVTISCAGTSSDVGYGNYVSWYQQLPGTAPKLLIYAVSTRASGIPDRFSGSKSGNTASLTISGLLSEDEADYYCASYRSSNNYVFGGGTKLTVL
notes: VH and VL cloned in frame with mouse IgG1 constant domains; also called 8H11 mIgG1
B2: 11F02 mouse IgG1 (antibody, V domains shown)
VH: B1 VH with L4V, G54H, G56A, A75S, W103S
VL: QTVVTQEPSLSVSPGGTVTLTCGLSSGSVTSSNYPGWYQQKPGQAPRTLIYNTNSRYSGVPNRFSGSISGNKAALTITGAQPEDEADYYCALYMGSSSYNTVFGGGTHLTVL
notes: VH and VL cloned in frame with mouse IgG1 constant domains; also called 11F02 mIgG1
B3: 10B02 mouse IgG1 (antibody, V domains shown)
VH: QVQLVESGGGLVQPGGSLRVSCAASGFTFSYHYMNWVRQAPGKGLEWVSGISAGGGRTYYADSVKGRFTISRDNAKNTLYLQMNSLNAEDTALYYCARVHGITNDYWGQGTQVTVSS
VL: QSALTQPPSVSGSPGKTVTISCAGTSSDVGYGNYVSWYQQLPGMAPKLLIYEVNKRASGITDRFSGSKSGNTAFLTISGLQSEDEADYYCASYRNSNNWVFGGGTHLTVL
notes: VH and VL cloned in frame with mouse IgG1 constant domains; also called 10B02 mIgG1
B4: scFv 2C07 (periplasmic extract, Myc-tagged) (scFv, not shown: small tags and cut ends)
scFv: ELQLVESGGGLVQPGGSLRLSCAASGFTFSSYAMSWVRQAPGKGLEWVSNINSGGGSTGYADSVKGRFTISRDNAKNTLYLQMNSLKPEDMAVYYCAKYLRTYYPNAAFGMDYWGKGTLVTVSSGGGGSGGGGSGGGGSQAVLTQPSAVSVSLGQTARITCQGGNFGRYYASWYQQKPGQAPVLVIYRDSERPSGIPERFSGSSSGDTATLTISGAQAEDEADYYCQSGRSSDNAVFGGGTHLTGL
B5: scFv 1D11 (periplasmic extract, Myc-tagged) (scFv, not shown: small tags and cut ends)
scFv: QVQLVESGGGLVQPGGSLRLSCAASGFTFDDYAMSWVRQAPGKGLEWVSGISWNGGSTYYAESMKGRFTISRDNAKNTLYLQMNSLKSEDTAVYYCAKDRNLGYRLGYPYDYWGQGTQVTVSSGGGGSGGGGSGGGGSQSVLTQPPSVSGSPGETVTISCAGTSSDVGYGNYVSWYQQLPGMAPRLLIYEVNKRASGITDRFSGSKSGNTASLTISGLQSEDEGDYYCASYRSSNNAVFGGGTHLTVL
notes: also called 1D011
B6: scFv 6A08 (periplasmic extract, Myc-tagged) (scFv, not shown: small tags and cut ends)
scFv: QVQLVESGGGLVQPGGSLRLSCAASGFTFSSYAMSWVRQAPGKGPEWVSAINRGGGSTYYADSVKGRFTISRDNAKNTLYLQMNSLKPEDAAVYYCATPGDRLWYYRYDYWGQGAQVTVSSGGGGSGGGGSGGGGSQTVVTQEPSLSVSPGGTVTLTCGLSSGSVTSSNYPGWYQQTPGQAPRLLIYNTNSRYSGVPNRFSGSISGNKAALIISGAQPEDEADYHCALNRVRGTYRVFGGGTHLTVL
B7: scFv 4E08 (periplasmic extract, Myc-tagged) (scFv, not shown: small tags and cut ends)
scFv: QVQRQESGPGLVKPSQTLSLTCTVSGGSITTSYYAWSWIRQPPGKGLEWMGVIASDGSTYYSPSLKSRTSISRDTSKNQFSLQLSSVTPEDTAVYYCALYIRGSSWSGWSAYDYWGQGTQVTVSSGGGGSGGGGSGGGGSQPVLNQPSAVSVSLGQTARITCQGGNFGYYYGSWYQQKPGQAPVLVIYKDSERPSGIPERFSGSSSGGTATLTISRAQAEDEADYYCQSADSSDNPVFGGGTHLTVL
notes: also called 4E8
B8: scFv 1C09 (periplasmic extract, Myc-tagged) (scFv, not shown: small tags and cut ends)
scFv: QVQLVESGPGLVKPSQTLSLTCTVSGGSITTNSYYWSWIRQPPGKGLEWMGAIAYSGSTYYSPSLKSRTSISRDTSKNQFTLHLSSVTPEDTAVYYCARRPNWYRALDAWGQGTLVTVSSGGGGSGGGGSGGGGSNFMLTQPSAVSVSLGQTARITCQGANLGRYYGIWYQQKPGQAPVQVIYGDSNRPSGIPERFSGSSSGGTATLTISGAQAEDEADYYCQSYESSTSPVFGGGTHLTVL
notes: also called 1C9
B9: scFv 2F09 (periplasmic extract, Myc-tagged) (scFv, not shown: small tags and cut ends)
scFv: QVQVQESGPGLVKPSQTLSLTCTVSGGSITTNYFYWSWIRQSPGKGLEWIGAIAYSGRTYYSPSLKSRTSISRDTSNNQFTLQLSSVTPEDTAVYYCARGPKGLASYYDYWGQGTQVTVSSGGGGSGGGGSGGGGSSSALTQPSAVSVSLGQTARITCQGGNFGYYYVSWYQQKPGQAPVLVIYRDSGRPSGIPERFSGSSSGDTATLTISGAQAEDEADYYCQSGSSSDNTVFGGGTHLTVL

What follows are binders tested against T1, recombinant human galectin-10, … (assay: cell-based or functional assay).

Binder	50% dissolution (min) of CLCs, antibody 50 uM [min]	90% dissolution (min) of CLCs, antibody 50 uM [min]
B1	22.4	43.5
B2	25.5	57.5
B3	25.1	47.4

Target: T1, recombinant human galectin-10, …
Test: cell-based or functional assay
Remark: another data set of the same source

Binder	50% crystal dissolution (min), 50 uM [min]	90% crystal dissolution (min), 50 uM [min]
B1	68.3	> 120
B3	73.7	> 120

Target: T2, human galectin-10-His
Test: ELISA, coated antigen 0.5 ug/mL
Description: (§1) In a similar setup to that used during the characterization of the scFv-human Fc molecules, the relative binding properties of the 7 mouse IgG1 antibodies were analyzed by ELISA. A Maxisorp plate was coated overnight with 0.5 μg/mL of human or cynomolgus WGS or YRT isoform of galectin-10-His. Then a serial dilution of each clone (from 100 nM, dilution 1/4, 12 points of dilutions) was incubated on coated galectin-10. After several washing steps, detection of the bound mouse IgG1 was carried out with an anti-mouse Fc-HRP antibody (DAMPO, Jackson ImmunoResearch, Catalog 715-035-150). Absorbance was measured at 450 nm (reference at 620 nm) with Tecan instrument. The raw data (OD values) were plotted on GraphPad Prism 7.01. The EC50 values for each antibody, calculated with a non-linear regression (log(agonist) vs. response Variable slope (four parameters)), are shown in the table below. Antibody 1D11 from the previous panel was included for comparison.

Binder	EC50 [nM]	OD values [OD]
B1	1.46	1.5
B2	3.08	0.9
B3	2.28	1.4

Target: T3, cynomolgus galectin-10-His, WGS isoform
Test: ELISA, coated antigen 0.5 ug/mL
Description: as §1

Binder	EC50 [nM]	OD values [OD]
B1	0.03	3.61
B2	0.6	3.29
B3	0.04	3.7

Target: T4, cynomolgus galectin-10-His, YRT isoform
Test: ELISA, coated antigen 0.5 ug/mL
Description: as §1

Binder	EC50 [nM]	OD values [OD]
B1	0.3	2.97
B2		1.7
B3	0.14	3.36

Target: T2, human galectin-10-His
Test: SPR Biacore T3000, mouse IgG1 captured
Description: (§2) The binding capacity of the mouse IgG1 antibody panel to galectin-10 was analysed on Biacore T3000. For this purpose, a capture approach was used, where a fixed concentration (1.5 μg/mL) of the mouse IgG1 clone was captured by polyclonal anti-mouse Fc antibodies immobilized on CM5 Chip to reach a binding signal around 150 RU. Then a serial dilution of human and cynomolgus WGS isoform of galectin-10-His (serial dilution, 1 over 2 from 5 μg/mL) diluted in HBS-EP pH7.4 was injected. Raw data were analysed via BIA evaluation software with a blank subtraction. The kd/KD and Rmax of each mAbs to galectin-10-His was determined using the Fit Kinetics simultaneous ka/kd/Binding with mass transfer/Local Rmax on BIA evaluation software.

Binder	Kd [nM]	koff [s⁻¹]	kon [M⁻¹ s⁻¹]
B1	0.9	0.00197	2.31e+06
B2	2.2	0.00489	2.27e+06
B3	1.5	0.00205	1.42e+06

Target: T3, cynomolgus galectin-10-His, WGS isoform
Test: SPR Biacore T3000, mouse IgG1 captured
Description: as §2

Binder	Kd [nM]	koff [s⁻¹]	kon [M⁻¹ s⁻¹]
B1	4.4	0.000754	170000
B2	5	0.00198	394000
B3	0.9	0.00042	494000

These binders were tested against T5, human galectin-10 as coated in ELISA … (assay: ELISA, scFv periplasmic extract on coated soluble galectin-10, anti-Myc-HRP).
Description: In order to test the binding capacity of the scFvs to galectin-10, an ELISA binding assay was established. Briefly, a Maxisorp plate was coated with soluble galectin-10 (1 μg/mL), then blocked with casein, before being incubated with the periplasmic extract (dilution 1/5 in PBS) containing the scFv-Myc. Detection of the binder was carried out with an anti-Myc-HRP antibody. Absorbance was measured at 450 nm (reference at 620 nm) with Tecan instrument. A significant number of galectin-10 scFv binders were isolated after the second round of selection (45-87% of binders).

Binder	ELISA binding (OD values) [OD]	PERI-ELISA binding (OD values) [OD]
B4	3.6	3.63
B5	3.3	
B6	3.5	
B7	3.6	
B8	3.5	
B9	3.6	

Target: T6, human galectin-10-His (recombinant …)
Test: BLI Octet RED96, galectin-10-His on anti-Penta-His tips, scFv periplasmic extract 1/10
Description: Briefly, galectin-10-His tagged diluted in Kinetic Buffer was captured on Anti-Penta His 1K sensor tips until an immobilization level of 1 nm was reached. Then, diluted periplasmic extracts (1/10) were applied and association/dissociation to immobilized galectin-10-His was measured using the ForteBio Data analysis 9.0 software (subtraction of the reference Tips, 1.1 binding model). During the screening, only the dissociation (off-rate) of the scFv can be determined since the effective concentration of the scFv is unknown and can vary a lot from clone to clone. […] Therefore, taking into consideration the ELISA and BLI data, a new panel of lead scFvs was selected.

Binder	koff [s⁻¹]
B4	0.0067
B5	0.0052
B6	0.0082
B7	0.0094
B8	0.0014
B9	0.0099
